Measurements taken from article PMC6366636.

Assays:
[1] = molecular target: Fluorescently labeled EC12 probe (EC12 A36C/Y44W conjugated with Alexa-488) (Manduca sexta); test: native gel or EMSA
[2] = molecular target: Cry1Ab toxin of Bacillus thuringiensis subsp. berliner 1715 (trypsin-activated) (Bacillus thuringiensis subsp. berliner 1715) (UniProt P0A370); test: native gel or EMSA

Substance | Kd [1] [nM] | decrease of the capacity to compete with the EC12 probe, against EC12WT [2] [%]
Cry1Ab toxin of Bacillus thuringiensis subsp. berliner 1715 (trypsin-activated) (from UniProt P0A370 1-1155) (natural protein) | 19.5 | –
EC12_(SQ/AA) (alanine substitution of the serine-glutamine dipeptide in EC12) (domain or fragment) | – | 50
